Assay: label from the status in PepcDB records
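Further: failed if final PepcDB status was selected cloned or expressed and not failed if soluble or beyond.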

Row | Sequence | protein production
1 | MSLGRKQQYGTLASIAAKLGISRTTVSNAYNRPEQLSAELRQRILDTAEDMGYLGPDPVARSLRTRRAGAIGVLLTEDLTYAFEDMASVDFLAGVAQAAGDTQLTLIPASPASSVDHVSAQQLVNNAAVDGVVIYSVAKGDPHIDAIRARGLPAVIADQPAREEGMPFIAPNNRKAIAPAAQALIDAGHRKIGILSIRLDRANNDGEVTRERLENAQYQVQRDRVRGAMEVFIEAGIDPGTVPIMECWINNRQHNFEVAKELLETHPDLTAVLCTVDALAFGVLEYLKSVGKSAPADLSLTGFDGTHMALARDLTTVIQPNKLKGFKAGETLLKMIDKEYVEPEVELETSFHPGSTVAEGHHHHHH | not failed
2 | KRITRPGNTDDPSGGNKVLLLSIQNPLYPITVDVLYTVCNPVGKVQRIVIFKRNGIQAMVEFESVLCAQKAKAALNGADIYAGCCTLKIEYARPTRLNVIRNDNDSWDYTKPYLGRR | not failed
3 | MHSQIWVVSTLLISIVLIVLTIVKFKFHPFLALLLASFFVGTMMGMGPLDMVNAIESGIGGTLGFLAAVIGLGTILGKMMEVSGAAERIGLTLQRCRWLSVDVIMVLVGLICGITLFVEVGVVLLIPLAFSIAKKTNTSLLKLAIPLCTALMAVHCVVPPHPAALYVANKLGADIGSVIVYGLLVGLMASLIGGPLFLKFLGQRLPFKPVPTEFADLKVRDEKTLPSLGATLFTILLPIALMLVKTIAELNMARESGLYILVEFIGNPITAMFIAVFVAYYVLGIRQHMSMGTMLTHTENGFGSIANILLIIGAGGAFNAILKSSSLADTLAVILSNMHMHPILLAWLVALILHAAVGSATVAMMGATAIVAPMLPLYPDISPEIIAIAIGSGAIGCTIVTDSLFWLVKQYCGATLNETFKYYTTATFIASVVALAGTFLLSFII | failed
4 | MKKGYMYIALTTIIFSTMEIALKLVSKSFNPIQLNFTRFFIGGLFLVPFALNTLHKRHLSISTKDLRFFALLGLLGTVISMSLYQLAVQNTKASVVAVLFSCNPVFVTILAFFLLREAIHKNNIAALILEVIGTIVIIDPLNTKLSILGLALTIASTLIFAAYGVFGKKKCAKYGGIVVTCFGFLFGSIEMLVLIGITHITPIANLFSSNGIAIFSNIPLFTGYSLKNLPLMCFICLINTGAGFACYFKAMEETSAQTTSLVFFFKPILAPILALILLHEIIPVNMIIGILFILAGSISSILPELLAQRQTKLEKTA | failed
5 | MSLKVVSVDTLCCDAGWRNYHFVKLTTDEGIVGWSEFDEGFGSPGVTAVIEQLGKRLVGASVMEHERFFAEAYCLTRPATGGVVSEGIGAIENALLDAKAKTLNVPCYELLGGKLRDRVPVYWSHCPTWRINHPKFFGPPVTDLDGVKRTAEEARERQFRAIKTNIFIHDDGPLHAWRPGFAVPFQPALNVDRKVLRNLRAHLEALRDGAGPDVEILLDLNFNAKPEGYLKILRELADFDLFWVEIDSYSPQGLAYVRNHSPHPISSCETLFGIREFKPFFDANAVDVAIVDTIWNGVWQSMKIAAFADAHDINVAPHNFYGHLCTMINANFAAAVPNLRIMETDIDRLAWEDELFTHAPEYQNGELIIPDRPGWGTDPVEEAILAHPPKVMGGLLQYKRSEGHHHHHH | not failed
6 | MFKNVKKSVTRTIASAMLLILLLSVATTGFAIFTLASSLNDAEAVNVAGSMRMQSYRLAHDIQIRSVDYSSHIDAFEHSIYSSSMKALQHWSVPEDITHDYYRLIMRWHELKSVLRGEDPSQYQLLVAGFVQQIDDFVFKLQNFSEQKLINLAWIGGLGLGGILCASMFVVHFIRLEVVRPLRALVFASERIKNRSFDINLAVSSDNEMGILTRTFNRMATDLGKLYRGLEQAVDEKTRKLQHANQSLEVLYDSSKELTASRINQDNFQAILKHIASLEGIKAVKLEIEQLGEPNWILTEGEECCHDCDDECHAEPLTLDGEHLGSLYWKAGLPCPNETLIDNFVQILSRAVYYNRAQRQAEQILLMEERATIARELHDSLAQALSYLKIQVALLKRSVKNLPDEKAIAQANQVIAELDTGLSAAYTQLRELLTTFRLTIKEGSFGQALQEMVETLNEQTTAEITLKNRLSSTELDAHQQVHLLQLIREAALNAIKHAQADHIHIQCLDCDGKVTVTVSDDGVGFEHQDEKINHYGMTIMQERAARLHADLQIEASINKGCTVKLEFQHSKEVNFDSV | failed
7 | MALSKRELDELKPWIEKTVKRVLGFSEPTVVTAALNCVGKGMDKKKAADHLKPFLDDSTLRFVDKLFEAVEEGRSSRHS | not failed
8 | TMLRVRSRDGLERVSVDGPHITVSQLKTLIQDQLQIPIHNQTLSTNRNLLLAKSPSDFLAFTDMADPNLRISSLNLAHGSMVYLAYEGERTIRG | not failed
9 | TTESLYAFSRKLAGTAALDDVLWATAYQIALMLKVRVVLLLPEQGRIAVKAGYPPEDQLDPADLAAANWAWENDRVAGRGSDTLPGAKRLFLPMRTGRGPIGVIGIDDDRAGALLTPDQRRLLDALTDQGALAIERVHLVEDMDRVKR | failed
10 | PVRLEGDQVAAAEALVAAVAADSYSTTLLKGVTGSGKTEVYLEAVAECLRRGRQALVLLPEIALTSEFLARVEARFGARPAEWHSGVTATERRRLWRMVSEGQAQFVAGARSALFLPFRDLGLVVVDEEHDTSYKQEEGALYNARDMAVLRASICGCPAVLASATP | failed
11 | MLYKSVTESFNEFIIDRSDATCIRCKVCVRQCAYEVHAYEAKADALTEDNTLCIGCRRCSALCPTGAITIRSNEEVFKRNESWSNAHIRNLYAQADTGGILLAAMGNPAKYPIYWDHMLLDASQVTNPSIDPLREPMELRTYLGKKPHSIEVVRDEQTGKPKLATKLTPQIKMEYPFIFSAMSYGALNLNAHKAMAMAAKELGTLYNTGEGGLHRDLYQYGSNVMVQVASGRFGVSEAYLNAGVAIEIKVGQGAKPGIGGHLPGEKVNDQISETRMIPAGADAISPAPHHDIYSIEDLRQLIFALKEATNYTKPVSVKIAAVHHVAAIASGVARAGADIITIDGFRGGTGAAPQVIRDNVGIPMELALAAVDARLRDEGIRNQVSIVVGGGVRSSGDAIKAIALGADAINMGTSTLLALGCTLCQRCYTGKCPWGITTNNPYLAKRLNPELGAERLVNLVHAWGHEMKEILGGMGLNALESLRGNRYKLRALGLTEKDMNILGVMPAGE | failed
12 | MSYRTISAEEAVMAIKSGDRVFLHTAAATPLRLIEAMVSRASHLRDVEIVSLHTEGDAPYVRPEFQESFRLNAFFVGRNVRSAVQCGYADAIPIFLSDVPAMFYDGVMPLDVALVHVSPPDRHGYCSLGVSVDATRAAVHTARHVIAQVNPNMPRTHGEGLLHVSKIHSLVEVDDPLPETPRHELTDVERQIGQHIASIVEDGATLQMGIGAIPDATLAALTNHKDLGIHSEMFSDGVVDLVEKGVVNGRCKKTHNEIIVASFLVGTRKLYDFVDDNPLVEMFGSDYVNDTKEIRKNPKVTAINSAIEIDMTGQVCADSIGTRHFSGVGGQMDFIRGAALSPGGKPIIALPATTRKGESRIVTQLKPGAGVVTTRAHVQYVVTEYGIVNLHGKNLRQRAEALATIAHPDFREEILRQAHELYGRKSNCLID | failed
13 | MGQSIKNNFLLNLSTTITGLLFPLITFPYASRILMADGIGQVQFFQSIIDYVSLCTALGIPLYAVREIARIRDNKELRSRTTIEILLLHAILTLVGYIVVFILAKTVAKIEIDASLFFLLSTTLFFNTIGVAWFYQAIEDFKYITLRSLFVRILSLVALFIFVKTKQDLFYYAGILVIGTVGNNIFNFFRLRKYIKLSKGEFKRLNLLRHLIPALKIFILNLVISIYVNLDSVMLGFLKNEESVGYYAAATRLTKAILGIVSSLGAVLLPRFSNMITNGQKEEFQLLANKAASFTIALSLPMSVGLIFMAAPIIHIFCGNGFEPSILTLKLVAPIVLFIGLSGIIGMQILYPQGREKYVIISTMVGACINLLINYLLIPQYGQYGAALGTVIAEFMVTVIMILLGRKYLPINILSKQNLHYLIGSIVISILLAFLFVFPLHEVNYLLIGILLSVIVYYAYLLMIKDTLALQLKKLLLSIFKQ | failed
14 | MNIAVQTLRALAETIVTPSYLLTIIVIMIMFYMKNRRISFMQRMIIGQNIESPFELTLSQITLSIIAGALGSVILSYLGVVFKDNSAIVLLFLISVILMFAGSRFLCFSYSGSILGIISIVIQFLSVNKIADVSSIKFLEIDVVMIMSLVGVLHIVEGIIVMIDGKSGAIPVFTNREDKIIGGFAFKRYWVLPITLLFLLNNADLNGTVNVATPDSWPIIRTAFTVIGKSAVISFMMFYGIIGYKSVTFTKSKRKKTFMSGMAIALYGAVLLGLSQVLKHNLEQQIILCLLAPLLHETMLRLEAYSEVKGKPKFVSGEDGVMVLDVAPNSQAYEMGIKSGDLLLEINDTKIFSEEDITRSIQNMSKYMWFKIKDVQGKLNEISYDKFDRNKKLGAIFVPKGMPKESKIVKFEHKSFDDILDNVNKEDENKKDQK | failed

— a protein production outcome set (Wang et al. 2014)
